pIC50: −log10 of the molar value.
What was measured:
[1] = target: HIV-1 integrase wild-type (IN1-288) (Human immunodeficiency virus 1) (UniProt P12497); assay: inhibition; conditions: I, 3'-processing
[2] = target: HIV-1 gp120 (Human immunodeficiency virus 1) (UniProt P04578); assay: competition; conditions: ID50 for gp120, gp120-CD4 interaction
[3] = target: T1, SIV integrase (Simian immunodeficiency virus) (UniProt P05897); assay: inhibition; conditions: PS at first and last internucleoside linkages (pPT), 3'-OH; 3'-processing
T1 sequence: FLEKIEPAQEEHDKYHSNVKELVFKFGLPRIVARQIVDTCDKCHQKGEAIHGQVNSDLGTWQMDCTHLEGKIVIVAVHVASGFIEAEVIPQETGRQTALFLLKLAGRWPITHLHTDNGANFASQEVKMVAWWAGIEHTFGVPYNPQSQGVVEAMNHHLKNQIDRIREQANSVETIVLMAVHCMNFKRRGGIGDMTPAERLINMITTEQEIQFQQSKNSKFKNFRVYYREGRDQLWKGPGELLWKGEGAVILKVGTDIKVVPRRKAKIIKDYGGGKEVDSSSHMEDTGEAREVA

Q: With “TCTTCCTCTCTCTACCCACGCTCIC [T30662 antisense GEM91 variant pPT]” as the sequence, how does the pIC50 ([1]; PS at first and last linkages (pPT), strand transfer >0.5) read?
A: Its pIC50 is less than 6.30.

Q: How did the pIC50 ([2]; phosphodiester, 3'-amine) turn out when GGGTGGGTGGGTGGGTGG [1173] was run?
A: The pIC50 was less than 4.00.

Q: “GTGGTGGGTGGGTGGGTGGTGGGTGGTGGTTGTGGGTGGGTGGTG [I100-21]” was tested. Which pIC50 ([2]; PS all linkages, 3'-amine) did it give?
A: Its pIC50 is 7.15.

Q: With GTTGGGGGTTGTTGGTGGGGTGGTGG [I100-12] as the sequence, how does the pIC50 ([2]; PS all linkages, 3'-amine) read?
A: The pIC50 was 7.10.

Q: With GATCCATGTCAGTGACAC [1231 random GATC] as the sequence, how does the pIC50 ([2]; phosphodiester, 3'-amine) read?
A: Its pIC50 is less than 4.00.

Q: How did the pIC50 ([2]; phosphodiester, 3'-amine) turn out when “GTGGTGGGTGGGTGGGTGGTGGGTGGTGGTTGTGGGTGGGTGGTG [I100-07]” was run?
A: The pIC50 was 6.10.

Q: How did the pIC50 [3] turn out when GTGGTGGGTGGGTGGGT [T30177 (AR177)] was run?
A: The pIC50 was 6.38.

Q: How did the pIC50 ([2]; phosphodiester, 3'-propanolamine) turn out when GTTGGGGGTTGTTGGTGGGGTGGTGG [I100-00] was run?
A: The pIC50 was 5.46.

Q: “TCTTCCTCTCTCTACCCACGCTCIC [T30531 antisense GEM91 variant PT]” was tested. Which pIC50 ([1]; PS all linkages, strand transfer 0.036) did it give?
A: The pIC50 was 7.52.

Q: How did the pIC50 ([1]; all phosphodiester, strand transfer >0.5) turn out when “TCTTCCTCTCTCTACCCACGCTCIC [T30658 antisense GEM91 variant PD]” was run?
A: The pIC50 was less than 6.30.

Q: How did the pIC50 ([2]; PS all linkages, 3'-amine) turn out when GGGTGGGTGGGTGGGTGG [1174] was run?
A: The pIC50 was 7.05.

Q: With GATCCATGTCAGTGACAC [1232 random GATC] as the sequence, how does the pIC50 ([2]; PS all linkages, 3'-amine) read?
A: The pIC50 was less than 5.00.

Source: patent publication US6355785
